# In the Human Domainome abundance scans (Beltran et al. 2025):
# ± gives the uncertainty stated by the source.
# Assay: abundance fitness (aPCA) (normalised: wild type 0, dead -1); higher = more abundant; growth selection in yeast, the domain comes from the species named
# Settings: Homo sapiens
row,Substance,abundance fitness
1,"BAG family molecular chaperone regulator 3 D51R, O95817",-0.568 ± 0.17
2,"BAG family molecular chaperone regulator 3 W36V, O95817",1.02 ± 0.24
3,"BAG family molecular chaperone regulator 3 E57M, O95817",-0.186 ± 0.24
4,"SAFB-like transcription modulator I56E, Q9NWH9",-0.597 ± 0.089
5,"BAG family molecular chaperone regulator 3 D51M, O95817",-0.658 ± 0.36
6,"BAG family molecular chaperone regulator 3 R53N, O95817",-0.257 ± 0.44
7,"BAG family molecular chaperone regulator 3 Q11R, O95817",0.463 ± 0.11
8,"SAFB-like transcription modulator T46P, Q9NWH9",0.037 ± 0.071
9,"SAFB-like transcription modulator S32K, Q9NWH9",-0.246 ± 0.085
10,"SAFB-like transcription modulator D24T, Q9NWH9",-0.157 ± 0.033
11,"SAFB-like transcription modulator G43D, Q9NWH9",-0.712 ± 0.2
12,"SAFB-like transcription modulator K31N, Q9NWH9",-0.629 ± 0.075
13,"SAFB-like transcription modulator P63M, Q9NWH9",-0.264 ± 0.068
14,"BAG family molecular chaperone regulator 3 D31W, O95817",-0.33 ± 0.13
15,"SAFB-like transcription modulator E57Y, Q9NWH9",-0.319 ± 0.11
16,"BAG family molecular chaperone regulator 3 R19M, O95817",-0.37 ± 0.28
17,"SAFB-like transcription modulator T42E, Q9NWH9",-0.107 ± 0.12
18,"BAG family molecular chaperone regulator 3 F39S, O95817",-0.729 ± 0.19
19,"SAFB-like transcription modulator L52F, Q9NWH9",-0.568 ± 0.12
20,"SAFB-like transcription modulator K45V, Q9NWH9",-0.399 ± 0.052
21,"BAG family molecular chaperone regulator 3 K29I, O95817",-0.758 ± 0.38
22,"BAG family molecular chaperone regulator 3 H42G, O95817",-0.65 ± 0.09
23,"BAG family molecular chaperone regulator 3 S14I, O95817",0.059 ± 0.23
24,"BAG family molecular chaperone regulator 3 Q33C, O95817",-0.352 ± 0.2
25,"BAG family molecular chaperone regulator 3 W36A, O95817",0.844 ± 0.49

row,Substance,abundance fitness
1,"BAG family molecular chaperone regulator 3 S44N, O95817",-0.035 ± 0.25
2,"BAG family molecular chaperone regulator 3 S44M, O95817",-0.371 ± 0.15
3,"SAFB-like transcription modulator T42R, Q9NWH9",0.057 ± 0.084
4,"SAFB-like transcription modulator E57Q, Q9NWH9",-0.667 ± 0.25
5,"SAFB-like transcription modulator D29A, Q9NWH9",-0.681 ± 0.25
6,"BAG family molecular chaperone regulator 3 P52C, O95817",-0.092 ± 0.3
7,"BAG family molecular chaperone regulator 3 I30C, O95817",0.028 ± 0.16
8,"BAG family molecular chaperone regulator 3 K29F, O95817",-0.719 ± 0.45
9,"BAG family molecular chaperone regulator 3 K29M, O95817",-0.23 ± 0.21
10,"SAFB-like transcription modulator L34F, Q9NWH9",-0.945 ± 0.2
11,"SAFB-like transcription modulator K20H, Q9NWH9",0.005 ± 0.12
12,"BAG family molecular chaperone regulator 3 D18E, O95817",-0.058 ± 0.074
13,"SAFB-like transcription modulator I28A, Q9NWH9",0.055 ± 0.1
14,"BAG family molecular chaperone regulator 3 W36R, O95817",0.623 ± 0.3
15,"BAG family molecular chaperone regulator 3 F38A, O95817",-0.181 ± 0.15
16,"SAFB-like transcription modulator D29V, Q9NWH9",-0.717 ± 0.09
17,"SAFB-like transcription modulator S32D, Q9NWH9",0.156 ± 0.073
18,"SAFB-like transcription modulator I22S, Q9NWH9",-0.521 ± 0.065
19,"BAG family molecular chaperone regulator 3 P37F, O95817",0.528 ± 0.17
20,"BAG family molecular chaperone regulator 3 N50A, O95817",0.249 ± 0.15
21,"SAFB-like transcription modulator E59C, Q9NWH9",-0.404 ± 0.037
22,"SAFB-like transcription modulator L25H, Q9NWH9",-0.732 ± 0.16
23,"SAFB-like transcription modulator S50P, Q9NWH9",-0.521 ± 0.14
24,"BAG family molecular chaperone regulator 3 N50D, O95817",-0.126 ± 0.2
25,"BAG family molecular chaperone regulator 3 N50P, O95817",-0.353 ± 0.31

row,Substance,abundance fitness
1,"SAFB-like transcription modulator D24W, Q9NWH9",-0.484 ± 0.039
2,"BAG family molecular chaperone regulator 3 G25Q, O95817",-1.03 ± 0.27
3,"SAFB-like transcription modulator D24S, Q9NWH9",-0.149 ± 0.032
4,"SAFB-like transcription modulator I49N, Q9NWH9",-0.518 ± 0.073
5,"SAFB-like transcription modulator I28R, Q9NWH9",-0.018 ± 0.057
6,"SAFB-like transcription modulator G60L, Q9NWH9",-0.396 ± 0.036
7,"BAG family molecular chaperone regulator 3 N43R, O95817",-0.549 ± 0.12
8,"BAG family molecular chaperone regulator 3 V40I, O95817",-0.084 ± 0.069
9,"BAG family molecular chaperone regulator 3 R45K, O95817",-0.043 ± 0.077
10,"SAFB-like transcription modulator E67K, Q9NWH9",-0.225 ± 0.082
11,"BAG family molecular chaperone regulator 3 P24T, O95817",-0.036 ± 0.086
12,"SAFB-like transcription modulator G60M, Q9NWH9",-0.238 ± 0.038
13,"SAFB-like transcription modulator D40K, Q9NWH9",-0.322 ± 0.099
14,"BAG family molecular chaperone regulator 3 V12M, O95817",-0.393 ± 0.4
15,"SAFB-like transcription modulator T46W, Q9NWH9",-0.129 ± 0.038
16,"SAFB-like transcription modulator L34A, Q9NWH9",-0.767 ± 0.092
17,"BAG family molecular chaperone regulator 3 G25T, O95817",-0.667 ± 0.22
18,"SAFB-like transcription modulator K31L, Q9NWH9",-0.155 ± 0.042
19,"SAFB-like transcription modulator I41E, Q9NWH9",-0.139 ± 0.083
20,"SAFB-like transcription modulator E33M, Q9NWH9",-0.007 ± 0.083
21,"SAFB-like transcription modulator L48P, Q9NWH9",-0.489 ± 0.048
22,"SAFB-like transcription modulator R37H, Q9NWH9",-0.648 ± 0.066
23,"BAG family molecular chaperone regulator 3 T46Q, O95817",-0.444 ± 0.14
24,"SAFB-like transcription modulator D62L, Q9NWH9",-0.46 ± 0.047
25,"SAFB-like transcription modulator I49Q, Q9NWH9",-0.068 ± 0.05

row,Substance,abundance fitness
1,"BAG family molecular chaperone regulator 3 P55Q, O95817",0.081 ± 0.19
2,"SAFB-like transcription modulator I66V, Q9NWH9",-0.036 ± 0.084
3,"SAFB-like transcription modulator L39K, Q9NWH9",-0.179 ± 0.046
4,"BAG family molecular chaperone regulator 3 G25W, O95817",-0.875 ± 0.34
5,"BAG family molecular chaperone regulator 3 E57T, O95817",-0.118 ± 0.21
6,"SAFB-like transcription modulator N38M, Q9NWH9",-0.192 ± 0.057
7,"SAFB-like transcription modulator D24I, Q9NWH9",-0.693 ± 0.035
8,"SAFB-like transcription modulator L68P, Q9NWH9",0.022 ± 0.062
9,"SAFB-like transcription modulator S32F, Q9NWH9",-0.125 ± 0.036
10,"SAFB-like transcription modulator I41L, Q9NWH9",-0.087 ± 0.065
11,"SAFB-like transcription modulator D40T, Q9NWH9",-0.375 ± 0.049
12,"BAG family molecular chaperone regulator 3 P21E, O95817",0.307 ± 0.12
13,"SAFB-like transcription modulator D40R, Q9NWH9",-0.354 ± 0.066
14,"SAFB-like transcription modulator I22T, Q9NWH9",-0.542 ± 0.1
15,"BAG family molecular chaperone regulator 3 N43G, O95817",-0.531 ± 0.14
16,"SAFB-like transcription modulator E58Y, Q9NWH9",-0.342 ± 0.076
17,"SAFB-like transcription modulator E67S, Q9NWH9",-0.084 ± 0.04
18,"BAG family molecular chaperone regulator 3 I30S, O95817",-0.191 ± 0.077
19,"SAFB-like transcription modulator T46Q, Q9NWH9",-0.137 ± 0.074
20,"SAFB-like transcription modulator K35C, Q9NWH9",-0.528 ± 0.23
21,"SAFB-like transcription modulator S32C, Q9NWH9",-0.309 ± 0.067
22,"SAFB-like transcription modulator I49A, Q9NWH9",0 ± 0.063
23,"BAG family molecular chaperone regulator 3 P55R, O95817",-0.306 ± 0.11
